# From the supplement of paper PMC7877785
# ± gives the uncertainty stated by the source.
# Assay: self-splicing fitness, log relative to wild type (ln ratio); higher = more splicing; Tetrahymena group I intron in knt gene, E. coli kanamycin selection, DiMSum; sequences stand for … in CUCUCU…GGAGGGAAAAGUUAUCAGGCAUGCACCUGGUAGCUAGUCUUUAAACCAAUAGAUUGCAUCGGUUUAAAAGGCAAGACCGUCAAAUUGCGGGAAAGGGGUCAACAGCCGUUCAGUACCAAGUCUCAGGGGAAACUUUGAGAUGGCCUUGCAAAGGGUAUGGUAAUAAGCUGACGGACAUGGUCCUAACCACGCAGCCAAGUCCUAAGUCAACAGAUCUUCUGUUGAUAUGGAUGCAGUUCACAGACUAAAUGUCGGUCGGGGAAGAUGUAUUCUUCUCAUAAGAUAUAGUCGGACCUCUCCUUAAUGGGAGCUAGCGGAUGAAGUGAUGCAACACUGGAGCCGCUGGGAACUAAUUUGUAUGCGAAAGUAUAUUGAUUAGUUUUGGAGUACUCGUGGUCG
# Method in brief: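 Six replicate transformations of E. coli BL21(DE3) with a pET-22b(+) library were grown overnight at 37°C or 30°C. The library randomised all eight P1ex-region intron nucleotides, the intron lying in the knt kanamycin-resistance gene, and plates were LB agar with or without 25 μg/mL kanamycin plus 100 μg/mL carbenicillin, 50 μM IPTG and 0.2% rhamnose. Pooled colonies were amplicon-sequenced on an Illumina HiSeq 2500, and fitness is the DiMSum error-weighted combination of wild-type-normalised replicate fold changes, kanamycin versus none.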
Sequence,self-splicing fitness (ln) (30 °C),self-splicing fitness (ln) (37 °C)
GAUAAGCAAUAUUACGUUCC,-3.71 ± 0.28,-2.94 ± 0.24
UGACAGCAAUAUUACGGAGC,-4.35 ± 0.39,-2.91 ± 0.19
CACCAGCAAUAUUACGGGCA,-1.29 ± 0.069,-0.343 ± 0.081
CAAGAGCAAUAUUACGCAAA,-2.46 ± 0.24,-2.56 ± 0.41
GAGUAGCAAUAUUACGCGUG,-2.16 ± 0.08,-0.531 ± 0.089
CGCUAGCAAUAUUACGGACG,-2.4 ± 0.17,-0.45 ± 0.17
AAUUAGCAAUAUUACGUUUG,-3.16 ± 0.22,-2.9 ± 0.27
AGUUAGCAAUAUUACGAAUA,-1.43 ± 0.14,-0.681 ± 0.21
CGACAGCAAUAUUACGAAUU,-3.51 ± 0.19,-2.04 ± 0.18
GCCCAGCAAUAUUACGAGAC,-2.15 ± 0.093,-0.787 ± 0.085
AUGGAGCAAUAUUACGUUCC,-2.13 ± 0.33,–
UAAAAGCAAUAUUACGCGUA,-1.12 ± 0.11,-0.0821 ± 0.096
CGCGAGCAAUAUUACGGGUU,-3.62 ± 0.2,-2.44 ± 0.2
CAAAAGCAAUAUUACGGCAC,-2.9 ± 0.14,-2.09 ± 0.15
CCUGAGCAAUAUUACGAUAU,-4.45 ± 0.37,-2.39 ± 0.23
UCAGAGCAAUAUUACGCGUU,-4.72 ± 0.29,-2.78 ± 0.21
GGCGAGCAAUAUUACGGCUG,-0.315 ± 0.15,-0.389 ± 0.28
CCUUAGCAAUAUUACGGUCU,-3.95 ± 0.25,-3.77 ± 0.46
CCGAAGCAAUAUUACGUCAU,-4.87 ± 0.42,-3.03 ± 0.33
AGCCAGCAAUAUUACGGUAA,-1.23 ± 0.069,-0.323 ± 0.074

Sequence,self-splicing fitness (ln) (30 °C),self-splicing fitness (ln) (37 °C)
CGGUAGCAAUAUUACGAAAA,-2.62 ± 0.35,-2.77 ± 0.39
CUGGAGCAAUAUUACGUCUA,-1.72 ± 0.3,-0.483 ± 0.23
ACAAAGCAAUAUUACGUUGG,-2.44 ± 0.068,-1.57 ± 0.079
CCGAAGCAAUAUUACGGUGU,-3.91 ± 0.21,-2.09 ± 0.14
UGCGAGCAAUAUUACGCCGG,-3.39 ± 0.34,–
GUUAAGCAAUAUUACGGGCA,-0.851 ± 0.15,-1.14 ± 0.14
AGGUAGCAAUAUUACGGGUC,-3.64 ± 0.03,-2.96 ± 0.046
CGGAAGCAAUAUUACGAUGC,–,-2.78 ± 0.36
UUUGAGCAAUAUUACGGGCU,-2.89 ± 0.34,-2.86 ± 0.41
GGCUAGCAAUAUUACGACGU,-0.0784 ± 0.15,1.15 ± 0.28
CCGGAGCAAUAUUACGGAUC,-2.42 ± 0.31,–
GGGCAGCAAUAUUACGUAAG,-0.581 ± 0.063,0.126 ± 0.096
ACUUAGCAAUAUUACGCUGA,-2.63 ± 0.49,–
ACGUAGCAAUAUUACGAUGC,-3.24 ± 0.22,-1.51 ± 0.22
CUCGAGCAAUAUUACGAGUC,-3.52 ± 0.32,-2.53 ± 0.2
ACAGAGCAAUAUUACGAUGG,-3.24 ± 0.14,-3.32 ± 0.23
UCGCAGCAAUAUUACGAUGG,-0.799 ± 0.061,-0.226 ± 0.084
GUAUAGCAAUAUUACGAGGU,-2.99 ± 0.26,-0.619 ± 0.28
AAAAAGCAAUAUUACGGUCU,-0.167 ± 0.057,-0.0164 ± 0.073
